Positions of bridges follow the written chain, without caps; N, C: chain ends. No end group written: not given here. *: point of attachment. 125I = [125I]*
Legend:
Test in all cases: 125I-OxA binding on CHO-S cells expressing the OX1R mutant
OX1R I98A = target: T1, OX1R I98A (human, UniProt O43613 1-425)
T1 construct: site-directed mutant (TM2) stably expressed in CHO-S cells; not shown: YFP from vector pEYFP-N2 fused at the C-terminus
T1 chain: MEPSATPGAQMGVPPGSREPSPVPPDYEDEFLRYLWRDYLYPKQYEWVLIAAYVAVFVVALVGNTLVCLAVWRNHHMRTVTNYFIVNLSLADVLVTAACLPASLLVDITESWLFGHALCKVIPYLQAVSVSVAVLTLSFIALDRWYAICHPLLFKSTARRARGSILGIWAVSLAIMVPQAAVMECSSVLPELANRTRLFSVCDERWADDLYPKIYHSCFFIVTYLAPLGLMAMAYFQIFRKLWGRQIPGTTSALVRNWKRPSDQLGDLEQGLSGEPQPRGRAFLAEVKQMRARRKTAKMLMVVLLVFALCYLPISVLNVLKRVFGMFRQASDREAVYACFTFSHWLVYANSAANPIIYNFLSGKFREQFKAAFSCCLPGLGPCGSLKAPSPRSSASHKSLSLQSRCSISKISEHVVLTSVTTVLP
Procedure: (§1) CHO—S cells expressing recombinant native or mutated OX1R were grown as previously described (El Firar et al., 2009) and maintained at 37° C. in a humidified 5% CO₂/air incubator. ¹²⁵I-orexia-A (74 TBq/mmol) was prepared as previously described (El Firar et al., 2009). […] Free peptides were removed by 2 cell washing cycles with PBS. […] Data were analyzed using the GraphPad software (http://www.graphpad.com).
(§2) All residues of OX1R fulfilling this condition were mutated to alanine by site-directed mutagenesis (Table II).

OX1R P101A = target: T2, OX1R P101A (human, UniProt O43613 1-425)
T2 construct: site-directed mutant (TM2) stably expressed in CHO-S cells; not shown: YFP from vector pEYFP-N2 fused at the C-terminus
T2 chain: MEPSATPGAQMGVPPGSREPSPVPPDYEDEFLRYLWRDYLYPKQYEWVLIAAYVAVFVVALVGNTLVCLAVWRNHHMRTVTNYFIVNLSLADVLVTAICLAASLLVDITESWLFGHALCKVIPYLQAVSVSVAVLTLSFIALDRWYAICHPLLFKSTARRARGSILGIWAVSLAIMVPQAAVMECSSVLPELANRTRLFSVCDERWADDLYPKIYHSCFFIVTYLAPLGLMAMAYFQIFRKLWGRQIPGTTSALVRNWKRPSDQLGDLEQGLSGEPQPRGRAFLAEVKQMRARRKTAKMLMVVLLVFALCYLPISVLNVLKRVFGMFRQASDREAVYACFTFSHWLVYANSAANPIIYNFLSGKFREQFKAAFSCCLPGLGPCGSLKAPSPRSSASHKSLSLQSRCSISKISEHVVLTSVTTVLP
Procedure: as §1, §2

OX1R F340A = target: T3, OX1R F340A (human, UniProt O43613 1-425)
T3 construct: site-directed mutant (TM7) stably expressed in CHO-S cells; not shown: YFP from vector pEYFP-N2 fused at the C-terminus
T3 chain: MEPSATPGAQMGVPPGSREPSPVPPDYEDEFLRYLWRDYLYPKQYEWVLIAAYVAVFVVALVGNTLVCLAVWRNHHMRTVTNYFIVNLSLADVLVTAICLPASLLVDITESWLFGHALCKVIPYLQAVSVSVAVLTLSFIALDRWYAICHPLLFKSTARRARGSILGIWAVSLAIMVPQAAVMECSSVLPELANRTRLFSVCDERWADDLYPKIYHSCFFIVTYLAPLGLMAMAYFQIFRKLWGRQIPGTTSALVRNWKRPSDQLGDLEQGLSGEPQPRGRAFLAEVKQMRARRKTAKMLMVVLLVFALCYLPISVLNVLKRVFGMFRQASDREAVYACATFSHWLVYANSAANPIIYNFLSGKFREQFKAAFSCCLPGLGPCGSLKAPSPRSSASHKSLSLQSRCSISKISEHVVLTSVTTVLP
Procedure: as §1, §2

OX1R Y348A = target: T4, OX1R Y348A (human, UniProt O43613 1-425)
T4 construct: site-directed mutant (TM7) stably expressed in CHO-S cells; not shown: YFP from vector pEYFP-N2 fused at the C-terminus
T4 chain: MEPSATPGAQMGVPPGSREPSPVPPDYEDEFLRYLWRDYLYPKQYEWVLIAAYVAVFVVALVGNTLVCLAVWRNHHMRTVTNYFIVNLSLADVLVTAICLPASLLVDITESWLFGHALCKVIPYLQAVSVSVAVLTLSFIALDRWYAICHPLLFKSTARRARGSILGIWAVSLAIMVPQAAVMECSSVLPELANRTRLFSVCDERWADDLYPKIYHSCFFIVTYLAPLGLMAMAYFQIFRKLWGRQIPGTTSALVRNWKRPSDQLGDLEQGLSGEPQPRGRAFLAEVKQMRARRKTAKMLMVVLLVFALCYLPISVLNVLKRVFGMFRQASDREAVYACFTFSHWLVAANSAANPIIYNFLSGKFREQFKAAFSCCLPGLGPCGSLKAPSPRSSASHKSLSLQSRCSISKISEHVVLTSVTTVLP
Procedure: as §1, §2

Measured: binding result

QPLPDCCRQKTCSCRLY(125I)ELLHGAGNHAAGILTL (peptide, UniProt O43612 34-66, looked up, disulfide 6-12, 7-14; not fully specified (residue 1, C-terminus), mature; also called OxA) [125I-orexin-A]
binds: all assays above
